The assay concerns the target GAL4-PGC-1β (yeast; mouse) (UniProt P04386). As to the kind of experiment: cell-based or functional assay.

In turn, Flag-tagged HCF came in with a transcriptional activity of PGC-1β in a cotransfection assay (luciferase, BOSC cells, FIG. 9A) of 3 fold.

(Values after patent US20030124598A1.)
